Test results as given in US20200239579A1 (Genmab, published 2020).

Biological target: T1, human PD-L1 (full length, on cells) (human, UniProt Q9NZQ7 19-290)
T1 construct: The entry holds the signal peptide; also called CD274; B7H1
Assay: flow cytometry on PC3 cells, PE anti-human IgG secondary, MFI (PE)
Experimental: Cells (3-5×10⁴ cells/well) were incubated in polystyrene 96-well round-bottom plates (Greiner bio-one, cat. no. 650101) with serial dilutions of antibodies (range 0.0001 to 10 μg/mL in 5-fold dilution steps) in 50 μL PBS/0.1% BSA/0.02% azide (staining buffer) at 4° C. for 30 min.
After washing twice in staining buffer, cells were incubated in 50 μL secondary antibody at 4° C. for 30 min. As a secondary antibody, R-Phycoerythrin (PE)-conjugated goat-anti-human IgG F(ab′)₂ (Cat. no. 109-116-098, Jackson ImmunoResearch Laboratories, Inc., West Grove, Pa.) diluted 1:500 in staining buffer, was used for all experiments. Next, cells were washed twice in staining buffer, re-suspended in 20 μL staining buffer and analyzed on an iQue screener (Intellicyt Corporation, USA). Binding curves were analyzed using non-linear regression (sigmoidal dose-response with variable slope) using GraphPad Prism V75.04 software (GraphPad Software, San Diego, Calif., USA).

T1 sequence (Q9NZQ7 19-290 limits assumed): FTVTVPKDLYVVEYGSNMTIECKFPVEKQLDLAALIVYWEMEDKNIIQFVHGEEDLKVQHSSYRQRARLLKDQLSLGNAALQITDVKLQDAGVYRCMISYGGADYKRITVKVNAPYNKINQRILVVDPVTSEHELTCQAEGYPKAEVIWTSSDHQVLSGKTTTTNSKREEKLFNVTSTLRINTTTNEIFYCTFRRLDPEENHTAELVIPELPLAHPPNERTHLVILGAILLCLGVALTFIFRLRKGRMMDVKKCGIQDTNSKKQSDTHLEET

B1: IgG1-511-LC33S-FEAR (antibody, V domains shown)
VH: QVQLVQSGSELKKPGASVMVSCKASGYTFTSYVMNWVRQAPGQGLEWMGWINSYTGNPTSAQGFTGRFVFSFDTSVNTAYLQISSLKAEDTAVYYCARGYCTSTSCYLDYWGQGTLVTVSS
VL: SYELTQPPSVSVSPGHTARITCSGDALPKKYASWFQQKSGQAPVLVIYEDSKRPSGIPERFSGSTSGTMATLTISGAQVEDETDYYCYSADTSGTHRVFGGGTKLTVLG
EC50 (read off the curve): ~0.03 µg/mL
